Legend:
[1] = biological target: T1, IL-2 receptor of the human CD4 positive T cell clone 3F8 (expresses CD25 and CD122) (human, UniProt P01589 22-272; P14784 27-551); experiment: cell-based or functional assay
T1 sequence 1: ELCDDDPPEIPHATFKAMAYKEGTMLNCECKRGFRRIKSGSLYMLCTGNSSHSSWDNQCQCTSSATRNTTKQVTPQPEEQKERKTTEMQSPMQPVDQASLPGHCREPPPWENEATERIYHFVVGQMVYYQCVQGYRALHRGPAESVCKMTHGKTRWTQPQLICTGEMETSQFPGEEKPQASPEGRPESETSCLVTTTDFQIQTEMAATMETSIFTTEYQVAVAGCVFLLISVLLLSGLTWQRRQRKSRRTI
T1 sequence 2: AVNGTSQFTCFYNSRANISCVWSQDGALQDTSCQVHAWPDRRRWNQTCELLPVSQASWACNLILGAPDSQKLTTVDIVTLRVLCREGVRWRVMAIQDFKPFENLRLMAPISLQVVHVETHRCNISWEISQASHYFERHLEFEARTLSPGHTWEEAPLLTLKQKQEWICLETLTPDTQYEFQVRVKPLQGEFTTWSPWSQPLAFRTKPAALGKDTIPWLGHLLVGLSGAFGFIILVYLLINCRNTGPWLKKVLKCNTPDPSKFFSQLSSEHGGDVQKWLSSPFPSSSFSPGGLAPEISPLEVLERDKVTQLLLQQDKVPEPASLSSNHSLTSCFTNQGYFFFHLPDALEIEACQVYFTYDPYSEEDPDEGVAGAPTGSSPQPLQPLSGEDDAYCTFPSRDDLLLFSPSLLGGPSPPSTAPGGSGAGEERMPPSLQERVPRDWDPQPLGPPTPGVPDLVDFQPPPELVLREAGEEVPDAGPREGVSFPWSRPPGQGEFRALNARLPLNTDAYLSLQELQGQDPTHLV

[2] = biological target: T2, human high affinity trimeric IL-2 receptor (CD25/CD122/CD132) (human, UniProt P01589 22-272; P14784 27-551; P31785 23-369); experiment: cell-based or functional assay
T2 sequence 1: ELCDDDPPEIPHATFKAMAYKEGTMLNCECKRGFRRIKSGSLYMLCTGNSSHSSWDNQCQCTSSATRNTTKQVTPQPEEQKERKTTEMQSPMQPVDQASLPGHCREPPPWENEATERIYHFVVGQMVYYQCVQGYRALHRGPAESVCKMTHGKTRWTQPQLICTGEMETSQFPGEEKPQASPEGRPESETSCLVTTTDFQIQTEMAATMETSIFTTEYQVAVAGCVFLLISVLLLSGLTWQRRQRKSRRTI
T2 sequence 2: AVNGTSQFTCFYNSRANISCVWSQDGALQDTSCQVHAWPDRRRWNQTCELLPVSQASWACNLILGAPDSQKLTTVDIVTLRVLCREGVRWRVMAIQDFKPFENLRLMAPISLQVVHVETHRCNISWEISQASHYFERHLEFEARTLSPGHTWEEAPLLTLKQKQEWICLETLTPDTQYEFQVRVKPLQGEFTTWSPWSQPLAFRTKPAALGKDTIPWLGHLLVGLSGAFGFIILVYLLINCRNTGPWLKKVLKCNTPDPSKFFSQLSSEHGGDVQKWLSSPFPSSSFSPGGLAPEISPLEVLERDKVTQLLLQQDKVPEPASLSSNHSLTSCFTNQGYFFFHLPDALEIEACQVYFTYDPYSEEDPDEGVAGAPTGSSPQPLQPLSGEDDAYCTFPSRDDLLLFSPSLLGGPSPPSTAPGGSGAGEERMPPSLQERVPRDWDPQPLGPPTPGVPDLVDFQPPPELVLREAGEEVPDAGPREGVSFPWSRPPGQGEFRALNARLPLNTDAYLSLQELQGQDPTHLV
T2 sequence 3: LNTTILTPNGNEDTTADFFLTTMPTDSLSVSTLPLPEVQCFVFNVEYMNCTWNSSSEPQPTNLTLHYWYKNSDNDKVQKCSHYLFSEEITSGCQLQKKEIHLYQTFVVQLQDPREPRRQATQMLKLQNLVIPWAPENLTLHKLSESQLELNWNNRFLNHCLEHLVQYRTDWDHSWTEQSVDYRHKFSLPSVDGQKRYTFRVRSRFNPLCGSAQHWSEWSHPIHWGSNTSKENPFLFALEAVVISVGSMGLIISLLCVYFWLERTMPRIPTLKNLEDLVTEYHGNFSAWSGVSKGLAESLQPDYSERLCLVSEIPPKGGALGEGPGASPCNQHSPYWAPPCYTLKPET

Binder | IFNγ Production IC50 (pM), 3F8 cells [1] [pM] | Proliferation IC50 (pM), 3F8 cells [1] [pM] | pSTAT5 ratio YT CD25/YT, dilution factor 2, upper table [2] | pSTAT5 ratio YT CD25/YT, dilution factor 4, upper table [2] | pSTAT5 ratio YT CD25/YT, dilution factor 8, upper table [2] | pSTAT5 ratio YT CD25/YT, dilution factor 16, upper table [2] | pSTAT5 ratio YT CD25/YT, dilution factor 32, upper table [2] | pSTAT5 ratio YT CD25/YT, dilution factor 64, upper table [2] | pSTAT5 ratio YT CD25/YT, dilution factor 128, upper table [2] | pSTAT5 ratio YT CD25/YT, dilution factor 2, lower table [2] | pSTAT5 ratio YT CD25/YT, dilution factor 4, lower table [2] | pSTAT5 ratio YT CD25/YT, dilution factor 8, lower table [2] | pSTAT5 ratio YT CD25/YT, dilution factor 16, lower table [2] | pSTAT5 ratio YT CD25/YT, dilution factor 32, lower table [2] | pSTAT5 ratio YT CD25/YT, dilution factor 64, lower table [2] | pSTAT5 ratio YT CD25/YT, dilution factor 128, lower table [2]
hIL2 mutein REV (L18R, Q22E, Q126V) (ligand) APTSSSTKKTQLQLEHLRLDLEMILNGINNYKNPKLTRMLTFKFYMPKKATELKHLQCLEEELKPLEEVLNLAQSKNFHLRPRDLISNINVIVLELKGSETTFMCEYADETATIVEFLNRWITFCVSIISTLT | 21.2 | 20.8 |  |  |  |  |  |  |  |  |  |  |  |  |  | 
GEH (ligand) cytokine: APTSSSTKKTQLQLEHLGLDLEMILNGINNYKNPKLTRMLTFKFYMPKKATELKHLQCLEEELKPLEEVLNLAQSKNFHLRPRDLISNINVIVLELKGSETTFMCEYADETATIVEFLNRWITFCHSIISTLT |  |  | 1.5 | 3.5 | 7.2 | 13.2 | 16.2 | 17.5 | 18.8 |  |  |  |  |  |  | 
hIL2 mutein REF (L18R, Q22E, Q126F) (ligand) APTSSSTKKTQLQLEHLRLDLEMILNGINNYKNPKLTRMLTFKFYMPKKATELKHLQCLEEELKPLEEVLNLAQSKNFHLRPRDLISNINVIVLELKGSETTFMCEYADETATIVEFLNRWITFCFSIISTLT | 38.3 | 37.6 |  |  |  |  |  |  |  |  |  |  |  |  |  | 
hIL2 mutein REL (L18R, Q22E, Q126L) (ligand) APTSSSTKKTQLQLEHLRLDLEMILNGINNYKNPKLTRMLTFKFYMPKKATELKHLQCLEEELKPLEEVLNLAQSKNFHLRPRDLISNINVIVLELKGSETTFMCEYADETATIVEFLNRWITFCLSIISTLT | 33.8 | 68.4 |  |  |  |  |  |  |  |  |  |  |  |  |  | 
AEH (ligand) cytokine: APTSSSTKKTQLQLEHLALDLEMILNGINNYKNPKLTRMLTFKFYMPKKATELKHLQCLEEELKPLEEVLNLAQSKNFHLRPRDLISNINVIVLELKGSETTFMCEYADETATIVEFLNRWITFCHSIISTLT |  |  | 1.3 | 2.6 | 5.7 | 9.7 | 14.1 | 16.6 | 17.9 |  |  |  |  |  |  | 
RDH (ligand) cytokine: APTSSSTKKTQLQLEHLRLDLDMILNGINNYKNPKLTRMLTFKFYMPKKATELKHLQCLEEELKPLEEVLNLAQSKNFHLRPRDLISNINVIVLELKGSETTFMCEYADETATIVEFLNRWITFCHSIISTLT |  |  |  |  |  |  |  |  |  | 1.7 | 1.8 | 2.1 | 2.2 | 2.9 | 4.4 | 7
RRH (ligand) cytokine: APTSSSTKKTQLQLEHLRLDLRMILNGINNYKNPKLTRMLTFKFYMPKKATELKHLQCLEEELKPLEEVLNLAQSKNFHLRPRDLISNINVIVLELKGSETTFMCEYADETATIVEFLNRWITFCHSIISTLT |  |  |  |  |  |  |  |  |  | 2.3 | 2.8 | 3.8 | 6.5 | 10.3 | 14.6 | 19

Further lines, results first:

IFNγ Production IC50 (pM), 3F8 cells [1] [pM] | Proliferation IC50 (pM), 3F8 cells [1] [pM] | pSTAT5 ratio YT CD25/YT, dilution factor 2, upper table [2] | pSTAT5 ratio YT CD25/YT, dilution factor 4, upper table [2] | pSTAT5 ratio YT CD25/YT, dilution factor 8, upper table [2] | pSTAT5 ratio YT CD25/YT, dilution factor 16, upper table [2] | pSTAT5 ratio YT CD25/YT, dilution factor 32, upper table [2] | pSTAT5 ratio YT CD25/YT, dilution factor 64, upper table [2] | pSTAT5 ratio YT CD25/YT, dilution factor 128, upper table [2] | pSTAT5 ratio YT CD25/YT, dilution factor 2, lower table [2] | pSTAT5 ratio YT CD25/YT, dilution factor 4, lower table [2] | pSTAT5 ratio YT CD25/YT, dilution factor 8, lower table [2] | pSTAT5 ratio YT CD25/YT, dilution factor 16, lower table [2] | pSTAT5 ratio YT CD25/YT, dilution factor 32, lower table [2] | pSTAT5 ratio YT CD25/YT, dilution factor 64, lower table [2] | pSTAT5 ratio YT CD25/YT, dilution factor 128, lower table [2] | Binder
 |  |  |  |  |  |  |  |  | 1.1 | 1.5 | 2.4 | 3.8 | 6 | 8.4 | 11.5 | RIH (ligand) cytokine: APTSSSTKKTQLQLEHLRLDLIMILNGINNYKNPKLTRMLTFKFYMPKKATELKHLQCLEEELKPLEEVLNLAQSKNFHLRPRDLISNINVIVLELKGSETTFMCEYADETATIVEFLNRWITFCHSIISTLT
 |  |  |  |  |  |  |  |  | 2.3 | 1.9 | 2.6 | 3.6 | 5.4 | 9.1 | 14.3 | RTH (ligand) cytokine: APTSSSTKKTQLQLEHLRLDLTMILNGINNYKNPKLTRMLTFKFYMPKKATELKHLQCLEEELKPLEEVLNLAQSKNFHLRPRDLISNINVIVLELKGSETTFMCEYADETATIVEFLNRWITFCHSIISTLT
 |  |  |  |  |  |  |  |  | 0.9 | 2.2 | 3.4 | 5.5 | 8.7 | 11.8 | 10.5 | RYH (ligand) cytokine: APTSSSTKKTQLQLEHLRLDLYMILNGINNYKNPKLTRMLTFKFYMPKKATELKHLQCLEEELKPLEEVLNLAQSKNFHLRPRDLISNINVIVLELKGSETTFMCEYADETATIVEFLNRWITFCHSIISTLT
 |  |  |  |  |  |  |  |  | 2.1 | 2 | 2.6 | 3.6 | 5.2 | 7.7 | 13 | RNH (ligand) cytokine: APTSSSTKKTQLQLEHLRLDLNMILNGINNYKNPKLTRMLTFKFYMPKKATELKHLQCLEEELKPLEEVLNLAQSKNFHLRPRDLISNINVIVLELKGSETTFMCEYADETATIVEFLNRWITFCHSIISTLT
 |  |  |  |  |  |  |  |  | 2 | 2 | 2.7 | 3.9 | 6.3 | 10.6 | 16 | RHH (ligand) cytokine: APTSSSTKKTQLQLEHLRLDLHMILNGINNYKNPKLTRMLTFKFYMPKKATELKHLQCLEEELKPLEEVLNLAQSKNFHLRPRDLISNINVIVLELKGSETTFMCEYADETATIVEFLNRWITFCHSIISTLT
 |  | 0.9 | 1.2 | 1.2 | 1.4 | 1.8 | 2.7 | 4.5 |  |  |  |  |  |  |  | MEH (ligand) cytokine: APTSSSTKKTQLQLEHLMLDLEMILNGINNYKNPKLTRMLTFKFYMPKKATELKHLQCLEEELKPLEEVLNLAQSKNFHLRPRDLISNINVIVLELKGSETTFMCEYADETATIVEFLNRWITFCHSIISTLT

Reference: US20210275641A1 (SYNTHEKINE, published 2021)
